{
  "source": "paper PMC13598120",
  "molecular_target": "GNL3, endogenous (UniProt Q9BVP2)",
  "sequence (Q9BVP2 whole entry)": "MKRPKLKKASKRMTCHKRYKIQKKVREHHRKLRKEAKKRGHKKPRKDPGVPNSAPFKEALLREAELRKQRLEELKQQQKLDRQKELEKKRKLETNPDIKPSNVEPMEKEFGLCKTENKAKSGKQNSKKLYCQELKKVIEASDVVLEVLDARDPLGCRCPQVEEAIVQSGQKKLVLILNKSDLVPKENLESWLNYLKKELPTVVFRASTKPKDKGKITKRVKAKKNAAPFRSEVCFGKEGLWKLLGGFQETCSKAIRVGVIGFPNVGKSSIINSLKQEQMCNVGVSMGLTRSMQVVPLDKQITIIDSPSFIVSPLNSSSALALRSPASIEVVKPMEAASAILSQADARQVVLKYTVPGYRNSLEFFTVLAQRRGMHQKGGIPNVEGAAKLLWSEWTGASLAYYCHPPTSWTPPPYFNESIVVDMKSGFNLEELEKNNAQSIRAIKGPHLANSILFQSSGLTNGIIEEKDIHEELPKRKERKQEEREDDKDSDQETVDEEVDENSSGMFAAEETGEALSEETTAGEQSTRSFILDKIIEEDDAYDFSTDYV",
  "assay": "PLA (α-Flag + α-GNL3)",
  "details": "U2OS cells, 2 h, read off a plot",
  "data": [
    {"substance": "Flag-BLM, wild type (from UniProt P54132) SIMdm (both SIMs, 217QIDL220 and 235VICI238, mutated; substitutions not printed)", "values": [
      {"measurement": "response (PLA dots per cell)", "setting": "20 μM ETO, parent: est. 54", "result": 28},
      {"measurement": "response (PLA dots per cell)", "setting": "DMSO (control), parent: est. 16", "result": 11}
    ]}
  ]
}
